Legend:
[1] = target: rhPSMA, extracellular part of human PSMA (residues 44-750) (human) (UniProt Q04609); assay: SPR (BIAcore 2000), mAb captured by anti-mouse IgG, rhPSMA as analyte, Langmuir 1:1 fit
[2] = target: human PSMA, full-length (endogenous on LNCaP and CW22Rv1 cells, or stably overexpressed in HEK293T/17 cells) (human) (UniProt Q04609); assay: flow cytometry on live LNCaP cells, mAb 5 µg/mL, Alexa Fluor 647 secondary antibody; number printed beside the open (LNCaP) histogram
[3] = target: Avi-PSMA, extracellular part of human PSMA comprising an N-terminal Avi-tag (human) (UniProt Q04609); assay: native ELISA, biotinylated Avi-PSMA on streptavidin plate, mAb titrated
[4] = target: human PSMA, full-length (endogenous on LNCaP and CW22Rv1 cells, or stably overexpressed in HEK293T/17 cells) (human) (UniProt Q04609); assay: flow cytometry (summary sentence; differs from […] in Table 2)
[5] = target: Avi-PSMA, extracellular part of human PSMA comprising an N-terminal Avi-tag (human) (UniProt Q04609); assay: direct ELISA on biotinylated Avi-PSMA held on streptavidin-coated plates, HRP secondary antibody, chemiluminescence, normalised binding (%)
[6] = target: human PSMA, full-length (endogenous on LNCaP and CW22Rv1 cells, or stably overexpressed in HEK293T/17 cells) (human) (UniProt Q04609); assay: flow cytometry titration on live LNCaP cells
[7] = target: human PSMA, full-length (endogenous on LNCaP and CW22Rv1 cells, or stably overexpressed in HEK293T/17 cells) (human) (UniProt Q04609); assay: flow cytometry titration on live LNCaP cells, Alexa Fluor 647 secondary antibody, normalised binding (%)

Row | Kd [1] | median fluorescence (Alexa Fluor 647) [2] | Kd [3] | Kd [4] | EC50 (read off the curve) [5] | Kd [6] | koff [1] | kon [1] | EC50 (read off the curve) [7] | Substance
1 | 1.08 nM | 10700 | 0.14 nM | 1.2 nM | 0.1 to 0.2 nM |  |  |  |  | 5D3 mAb (antibody)
2 | 1.21 nM | 10600 | 1.12 nM |  | 0.9 nM | 15.2 nM | 0.000123 s⁻¹ | 102000 M⁻¹ s⁻¹ | 10 nM | J591 mAb (antibody)
